Test results reported in PMC5596342, “Activity-Related Conformational Changes in D,D-Carboxypeptidases Revealed by In Vivo Periplasmic Förster Resonance Energy Transfer Assay in Escherichia coli” (mBio, 2017).
Where a chain is given by its changes, count along the chain named. Names may count otherwise.

B1: PBP6a (D,D-carboxypeptidase, dacC), fusions mNG-PBP6a and mCh-PBP6a (enzyme, Escherichia coli, UniProt P08506 28-400, looked up)
chain: AEQTVEAPSVDARAWILMDYASGKVLAEGNADEKLDPASLTKIMTSYVVGQALKADKIKLTDMVTVGKDAWATGNPALRGSSVMFLKPGDQVSVADLNKGVIIQSGNDACIALADYVAGSQESFIGLMNGYAKKLGLTNTTFQTVHGLDAPGQFSTARDMALLGKALIHDVPEEYAIHKEKEFTFNKIRQPNRNRLLWSSNLNVDGMKTGTTAGAGYNLVASATQGDMRLISVVLGAKTDRIRFNESEKLLTWGFRFFETVTPIKPDATFVTQRVWFGDKSEVNLGAGEAGSVTIPRGQLKNLKASYTLTEPQLTAPLKKGQVVGTIDFQLNGKSIEQRPLIVMENVEEGGFFGRVWDFVMMKFHQWFGSWFS
notes: PBP6a (dacC) of Escherichia coli; construct details in Text S7 and S8; One molecule for the two differently tagged copies; also called FP-PBP6a; source: E. coli, expressed from plasmids pSAV057 and pTHV037 (15 µM IPTG), in the periplasm of fixed cells; not shown: mNeonGreen (donor copy) or mCherry (acceptor copy), N-terminal, kept
B2: PBP6a^S66G active-site mutant, fusions mNG-PBP6a^S66G and mCh-PBP6a^S66G (enzyme, Escherichia coli, UniProt P08506 28-400, looked up)
chain: B1 chain with S39G
notes: PBP6a (dacC) of Escherichia coli with the active-site serine 66 changed to glycine; One molecule for the two differently tagged copies; source: E. coli, expressed from plasmids pSAV057 and pTHV037, in the periplasm of fixed cells; not shown: mNeonGreen (donor copy) or mCherry (acceptor copy), N-terminal, kept
B3: PBP5 (D,D-carboxypeptidase, dacA), fluorescent-protein fusions mNG-PBP5 and mCh-PBP5 (enzyme, Escherichia coli, UniProt P0AEB2 30-403, looked up)
chain: DDLNIKTMIPGVPQIDAESYILIDYNSGKVLAEQNADVRRDPASLTKMMTSYVIGQAMKAGKFKETDLVTIGNDAWATGNPVFKGSSLMFLKPGMQVPVSQLIRGINLQSGNDACVAMADFAAGSQDAFVGLMNSYVNALGLKNTHFQTVHGLDADGQYSSARDMALIGQALIRDVPNEYSIYKEKEFTFNGIRQLNRNGLLWDNSLNVDGIKTGHTDKAGYNLVASATEGQMRLISAVMGGRTFKGREAESKKLLTWGFRFFETVNPLKVGKEFASEPVWFGDSDRASLGVDKDVYLTIPRGRMKDLKASYVLNSSELHAPLQKNQVVGTINFQLDGKTIEQRPLVVLQEIPEGNFFGKIIDYIKLMFHHWFG
notes: PBP5 (dacA) of Escherichia coli; the FP is fused to the N terminus; construct details in Text S7 and S8; One molecule for the two differently tagged copies (mNG-PBP5 and mCh-PBP5), each chain carrying only one of the two fluorescent proteins; PDB 5J8X is a soluble form that lacks the C-terminal helix; also called FP-PBP5; source: E. coli, expressed from plasmid pSAV057 or pTHV037 (15 µM IPTG), in …
B4: PBP5^S44G active-site mutant, fusions mNG-PBP5^S44G and mCh-PBP5^S44G (enzyme, Escherichia coli, UniProt P0AEB2 30-403, looked up)
chain: B3 chain with S44G
notes: PBP5 (dacA) of Escherichia coli with the active-site change of Ser to Gly at position 44; One molecule for the two differently tagged copies; also called FP-PBP5^S44G; source: E. coli ΔdacA strain, expressed from plasmids pSAV057 and pTHV037, in the periplasm of fixed cells; not shown: mNeonGreen (donor copy) or mCherry (acceptor copy), N-terminal, kept
B5: PBP6b^S63G active-site mutant, fusions mNG-PBP6b^S63G and mCh-PBP6b^S63G (enzyme, Escherichia coli, UniProt P33013 22-388, looked up)
chain: AENIPFSPQPPEIHAGSWVLMDYTTGQILTAGNEHQQRNPAGLTKLMTGYVVDRAIDSHRITPDDIVTVGRDAWAKDNPVFVGSSLMFLKEGDRVSVRDLSRGLIVDSGNDACVALADYIAGGQRQFVEMMNNYAEKLHLKDTHFETVHGLDAPGQHSSAYDLAVLSRAIIHGEPEFYHMYSEKSLTWNGITQQNRNGLLWDKTMNVDGLKTGHTSGAGFNLIASAVDGQRRLIAVVMGADSAKGREEEARKLLRWGQQNFTTVQILHRGKKVGTERIWYGDKENIDLGTEQEFWMVLPKAEIPHIKAKYTLDGKELTAPISAHQRVGEIELYDRDKQVAHWPLVTLESVGEGSMFSRLSDYFHHKA
notes: PBP6b (dacD) of Escherichia coli with the active-site serine 63 changed to glycine; One molecule for the two differently tagged copies; source: E. coli, expressed from plasmids pSAV057 and pTHV037, in the periplasm of fixed cells; not shown: mNeonGreen (donor copy) or mCherry (acceptor copy), N-terminal, kept

Biological target: the molecule itself
Test: FRET or BRET; spectrum-based periplasmic FRET (mNG donor, mCh acceptor, spectral unmixing, acceptor FRET efficiency EfA) in E. coli grown in Gb1 at 28°C, induced with 15 µM IPTG, fixed with 2.8% formaldehyde and 0.04% glutaraldehyde, measured in PBS in a spectrofluorimeter; where indicated cells treated with 2 µg/ml amdinocillin or 1 µg/ml aztreonam during induction; cut-off for interaction EfA above 1.4%

Protein | EfA (acceptor FRET efficiency)
B1 | 3.2%
B2 | 3.8%
B3 | 2%
B4 | 5.4%
B5 | 2%
